Data on 4 substances can be found in PMC6215006.

The target of the assay is recombinant human macrophage-colony stimulating factor (human) (UniProt P09603).
UniProt P09603, sequence (P09603 36-181): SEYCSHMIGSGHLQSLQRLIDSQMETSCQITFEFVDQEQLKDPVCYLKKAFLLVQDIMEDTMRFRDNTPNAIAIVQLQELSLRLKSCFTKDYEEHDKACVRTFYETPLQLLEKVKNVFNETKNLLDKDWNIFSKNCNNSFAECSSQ

For the substance “mouse syndecan-1 ectodomain from HEK293E cells (from UniProt P18828 23-255) (domain or fragment)”, the inhibition of the differentiation of bone marrow-derived osteoclast precursors into osteoclasts with M-CSF (30 ng/mL) and RANKL (100 ng/mL), TRAP(+) MNCs; maximum inhibitory dose is 1 nM.

Turning to “mouse syndecan-2 ectodomain from HEK293E cells (from UniProt P43407 19-145) (domain or fragment)”, the inhibition of the differentiation of bone marrow-derived osteoclast precursors into osteoclasts with M-CSF (30 ng/mL) and RANKL (100 ng/mL), TRAP(+) MNCs; maximum inhibitory dose was 1 nM. As to “mouse syndecan-3 ectodomain from HEK293E cells (from UniProt Q64519 45-387) (domain or fragment)”, the inhibition of the differentiation of bone marrow-derived osteoclast precursors into osteoclasts with M-CSF (30 ng/mL) and RANKL (100 ng/mL), TRAP(+) MNCs; maximum inhibitory dose worked out at 1 nM. For “mouse syndecan-4 ectodomain from HEK293E cells (from UniProt O35988 24-145) (domain or fragment)” the value was 1 nM.
